Experimental data published in patent publication US20230192839A1, “ANTIBODIES HAVING CONDITIONAL AFFINITY AND METHODS OF USE THEREOF” (PFIZER INC., priority 2017, published 2023).

Test system: human CD33
Test: Biacore SPR binding kinetics of anti-CD33 scFv-Fc clones with or without 10 µM MTX
Conditions: for koff, kinetics toward antigen with 0 µM MTX / kon, kinetics toward antigen with 0 µM MTX / koff, kinetics toward antigen with 10 µM MTX / kon, kinetics toward antigen with 10 µM MTX / Kd: 37° C., pH 7.4; for koff, kinetics toward antigen with 0 µM MTX / kon, kinetics toward antigen with 0 µM MTX / koff, kinetics toward antigen with 10 µM MTX / kon, kinetics toward antigen with 10 µM MTX: scFv-Fc; for koff, kinetics toward antigen with 10 µM MTX / kon, kinetics toward antigen with 10 µM MTX / Kd: 10 µM MTX; for Kd: koff/kon, or estimated from binding response / limit of detection for weak interactions, read-out: KD, kinetics toward antigen with 10 µM MTX
From the text: The first 4 rounds of panning used biotinylated CD33 antigen captured on streptavidin or neutravidin coated 96-well plates. […] 1536 clones were randomly chosen from the 4th and 5th round of panning against the CD33 antigen and their binding specificity determined by phage ELISA. Clones that specifically bound to CD33 were sequenced and all unique clones were subjected to a phage competition ELISA to assess their relative affinities to CD33 and sensitivity to MTX by measuring their binding strengths in the presence or absence of 10 µM (micromolar) MTX (i.e. in 0 or 10 µM MTX).
All binding kinetics analysis was performed on label-free Biacore surface plasmon biosensors (Biacore T200™ from GE Life Sciences) at 37° C. in 10 mM Hepes pH 7.4, 150 mM NaCl, 0.05% Tween-20 (HBST+), with or without 10 µM MTX. The Biacore data were processed in Biacore T200 Evaluation Software, and the data were double-referenced (Myszka, 1999, J Mol Recognit 12(5):279-284) and fit globally to a simple Langmuir with mass transport model to determine the equilibrium dissociation constant, KD, from the ratio of the kinetic rate constants (KD = koff/kon). In some cases the binding of antigen was very low (or not detectable) in the presence of 10 µM MTX and as a result kinetic rate constants could not be accurately determined. In these cases, a KD (or KD limit) was estimated based on the binding response at the highest analyte concentration tested or based on the typical limit of detection for a Biacore T200.

Molecule	koff, kinetics toward antigen with 0 µM MTX (CD33)	kon, kinetics toward antigen with 0 µM MTX (CD33)	koff, kinetics toward antigen with 10 µM MTX (CD33)	kon, kinetics toward antigen with 10 µM MTX (CD33)	Kd (CD33)	times greater affinity for CD33 in the presence of 10 µM MTX as compared to in 0 µM MTX (CD33)	affinity for CD33 in the presence of MTX as compared to absence (in words) (10 µM MTX vs 0 µM MTX)
P04_C05: anti-CD33 clone with conditional affinity; VH SEQ ID NO: 41, VL SEQ ID NO: 42 (antibody, V domains shown, Synthetic Antibody) VH: QVQLVESGGGLVQAGGSLRLSCAASRRSSRSWAMHWVRQAPGKGLEWVAVISYDGRLKYYADSVKGRFTISRDNAEYLVYLQMNSLRAEDTAVYYCAAGLPWTDYWGQGTLVTVSS VL: QSVLTQPPSASGTPGQRVTISCSGSNSNIGSNYVSWYQQLPGTAPKLLIYSNNQRPSGVPDRFSGSKSGTSASLAISGLRSEDEADYYCAAWDDRLSVVFGTGTKLTVL	0.0021 s⁻¹	83000 M⁻¹ s⁻¹	0.013 s⁻¹	45000 M⁻¹ s⁻¹	–	–	–
P02_E08: anti-CD33 clone with conditional affinity; VH SEQ ID NO: 37, VL SEQ ID NO: 38; also as scFv in CAR (antibody, V domains shown, Synthetic Antibody, also as scFv in CAR) VH: QVQLVESGGGLVQAGGSLRLSCAASRRSSRSWAMHWVRQAPGKGLEWVAVISYDGRLKYYADSVKGRFTISRDNAEYLVYLQMNSLRAEDTAVYYCAASDYDGGGLFDLWGQGTLVTVSS VL: QSVLTQPPSASGTPGQRVTISCSGSNSNIGDNYVHWYQQLPGTAPKLLIYMNNQRPSGVPDRFSGSKSGTSASLAISGLRSEDEADYYCATWDDSLSGVVFGTGTKLTVL	0.01 s⁻¹	47000 M⁻¹ s⁻¹	–	–	> 0.726 µM	–	–
P03_H04: anti-CD33 clone with conditional affinity; VH SEQ ID NO: 39, VL SEQ ID NO: 40; also as scFv in CAR (antibody, V domains shown, Synthetic Antibody, also as scFv in CAR) VH: QVQLVESGGGLVQAGGSLRLSCAASRRSSRSWAMHWVRQAPGKGLEWVAVISYDGRLKYYADSVKGRFTISRDNAEYLVYLQMNSLRAEDTAVYYCAADPHDGYGGGPGFDYWGQGTLVTVSS VL: QSVLTQPPSASGTPGQRVTISCSGSSSNIGSNYVYWYQQLPGTAPKLLIYRSNQRPSGVPDRFSGSKSGTSASLAISGLRSEDEADYYCAAWDDTLSAVVFGTGTKLTVL	0.026 s⁻¹	72000 M⁻¹ s⁻¹	–	–	> 15.7 µM	–	–
P01_B02: anti-CD33 clone with increased affinity in presence of MTX; VH SEQ ID NO: 31, VL SEQ ID NO: 32 (antibody, V domains shown, Synthetic Antibody) VH: QVQLVESGGGLVQAGGSLRLSCAASRRSSRSWAMHWVRQAPGKGLEWVAVISYDGRLKYYADSVKGRFTISRDNAEYLVYLQMNSLRAEDTAVYYCAAADWYSGGGDALDIWGQGTLVTVSS VL: DIQMTQSPSSLSASVGDRVTITCRASQTIYNYLNWYQQKPGKAPKLLIYGASNLQSGVPSRFSGSGSGTDFTLTISSLQPEDFATYYCQQTYSSPTFGQGTKVEIK	0.0026 s⁻¹	140000 M⁻¹ s⁻¹	0.0006 s⁻¹	390000 M⁻¹ s⁻¹	–	about 10 times	increased affinity for CD33 in the presence of 10 µM MTX
P02_D08: anti-CD33 clone with conditional affinity; VH SEQ ID NO: 13, VL SEQ ID NO: 14 (antibody, V domains shown, Synthtic Antibody; Synthetic Antibody) VH: QVQLVESGGGLVQAGGSLRLSCAASRRSSRSWAMHWVRQAPGKGLEWVAVISYDGRLKYYADSVKGRFTISRDNAEYLVYLQMNSLRAEDTAVYYCAAERGDGLDGNVGLDIWGQGTLVTVSS VL: DIQMTQSPSSLSASVGDRVTITCRASQSISKYLNWYQQKPGKAPKLLIYGASTLQSGVPSRFSGSGSGTDFTLTISSLQPEDFATYYCQQSYSSGTFGQGTKVEIK	0.0061 s⁻¹	61000 M⁻¹ s⁻¹	0.062 s⁻¹	88000 M⁻¹ s⁻¹	–	–	–

Further lines, with some results ahead:

koff, kinetics toward antigen with 0 µM MTX (CD33)	kon, kinetics toward antigen with 0 µM MTX (CD33)	koff, kinetics toward antigen with 10 µM MTX (CD33)	kon, kinetics toward antigen with 10 µM MTX (CD33)	Kd (CD33)	times greater affinity for CD33 in the presence of 10 µM MTX as compared to in 0 µM MTX (CD33)	Molecule	affinity for CD33 in the presence of MTX as compared to absence (in words) (10 µM MTX vs 0 µM MTX)
0.0045 s⁻¹	63000 M⁻¹ s⁻¹	0.051 s⁻¹	94000 M⁻¹ s⁻¹	–	–	P08_C08: anti-CD33 clone with conditional affinity; VH SEQ ID NO: 27, VL SEQ ID NO: 28 (antibody, V domains shown, Synthetic Antibody) VH: QVQLVESGGGLVQAGGSLRLSCAASRRSSRSWAMHWVRQAPGKGLEWVAVISYDGRLKYYADSVKGRFTISRDNAEYLVYLQMNSLRAEDTAVYYCAAEGSGSTDGSGAIDVWGQGTLVTVSS VL: DIQMTQSPSSLSASVGDRVTITCRASQSIGSYLNWYQQKPGKAPKLLIYAASSLQSGVPSRFSGSGSGTDFTLTISSLQPEDFATYYCQQSYSSGSFGQGTKVEIK	–
0.044 s⁻¹	84000 M⁻¹ s⁻¹	–	–	> 9.02 µM	–	P02_A10: anti-CD33 clone with conditional affinity; VH SEQ ID NO: 9, VL SEQ ID NO: 10 (antibody, V domains shown, Synthetic Antibody) VH: QVQLVESGGGLVQAGGSLRLSCAASRRSSRSWAMHWVRQAPGKGLEWVAVISYDGRLKYYADSVKGRFTISRDNAEYLVYLQMNSLRAEDTAVYYCAAESEWDTGGFDVWGQGTLVTVSS VL: DIQMTQSPSSLSASVGDRVTITCRASQSIGSYLNWYQQKPGKAPKLLIYSSSNLQSGVPSRFSGSGSGTDFTLTISSLQPEDFATYYCQQSYTSGTFGQGTKVEIK	–
0.011 s⁻¹	120000 M⁻¹ s⁻¹	0.087 s⁻¹	75000 M⁻¹ s⁻¹	–	–	P16_E06: anti-CD33 clone with conditional affinity; VH SEQ ID NO: 29, VL SEQ ID NO: 30 (antibody, V domains shown, Synthetic Antibody) VH: QVQLVESGGGLVQAGGSLRLSCAASRRSSRSWAMHWVRQAPGKGLEWVAVISYDGRLKYYADSVKGRFTISRDNAEYLVYLQMNSLRAEDTAVYYCAAEGGDYPGTSDGGLDIWGQGTLVTVSS VL: DIQMTQSPSSLSASVGDRVTITCRASQSISNYLNWYQQKPGKAPKLLIYGASSLQSGVPSRFSGSGSGTDFTLTISSLQPEDFATYYCQQSYSAGTFGQGTKVEIK	–
0.02 s⁻¹	92000 M⁻¹ s⁻¹	0.025 s⁻¹	110000 M⁻¹ s⁻¹	–	–	P02_C02: anti-CD33 reference clone, less than 2-fold MTX effect; VH SEQ ID NO: 11, VL SEQ ID NO: 12 (antibody, V domains shown, Synthetic Antibody) VH: QVQLVESGGGLVQAGGSLRLSCAASRRSSRSWAMHWVRQAPGKGLEWVAVISYDGRLKYYADSVKGRFTISRDNAEYLVYLQMNSLRAEDTAVYYCAAEGGMGLDPWGQGTLVTVSS VL: DIQMTQSPSSLSASVGDRVTITCRASQTISSYLNWYQQKPGKAPKLLIYAASNLHSGVPSRFSGSGSGTDFTLTISSLQPEDFATYYCQQSYSSGTFGQGTKVEIK	–
0.0018 s⁻¹	160000 M⁻¹ s⁻¹	0.0089 s⁻¹	44000 M⁻¹ s⁻¹	–	–	P04_C09: anti-CD33 clone with conditional affinity; VH SEQ ID NO: 23, VL SEQ ID NO: 24 (antibody, V domains shown, Synthetic Antibody) VH: QVQLVESGGGLVQAGGSLRLSCAASRRSSRSWAMHWVRQAPGKGLEWVAVISYDGRLKYYADSVKGRFTISRDNAEYLVYLQMNSLRAEDTAVYYCAAEANESDSGGIDVWGQGTLVTVSS VL: DIQMTQSPSSLSASVGDRVTITCRASQTIGGYLNWYQQKPGKAPKLLIYAASSLQSGVPSRFSGSGSGTDFTLTISSLQPEDFATYYCQQGYSSGAFGQGTKVEIK	–
0.017 s⁻¹	110000 M⁻¹ s⁻¹	–	–	–	–	P01_A09: anti-CD33 clone with conditional affinity; VH SEQ ID NO: 3, VL SEQ ID NO: 4; tested as scFv-Fc (antibody, V domains shown) VH: QVQLVESGGGLVQAGGSLRLSCAASRRSSRSWAMHWVRQAPGKGLEWVAVISYDGRLKYYADSVKGRFTISRDNAEYLVYLQMNSLRAEDTAVYYCAAERPTSDGSTGGMDVWGQGTLVTVSS VL: DIQMTQSPSSLSASVGDRVTITCRASQSISSYLNWYQQKPGKAPKLLIYGASTLQSGVPSRFSGSGSGTDFTLTISSLQPEDFATYYCQQSYSSGTFGQGTKVEIK	–
